Like-named read-outs stand apart in the source and are kept apart here.

Here are results for 3 molecules from paper PMC6550315.

Experiment [1] concerns the target GTP-polymerized Taxol-stabilized microtubules (bovine tubulin) (bovine) (UniProt Q6B856). The experiment is described as follows: co-sedimentation.
Experiment [2] deals with Kif7DM (dimeric, non GFP-tagged Kif7, aa. 1–543), held on an anti-penta-HIS biosensor (human) (UniProt Q2M1P5). The experiment is described as follows: BLI. On the technique in general: In BLI a coated tip is dipped into the sample, and binding shifts an interference pattern.
For experiment [3] the target is unchanged. The experiment is described as follows: BLI. This is another data set of the same source.
Experiment [4] shares this target. The experiment is described as follows: BLI. The source holds these as a separate data set.
In experiment [5] the target is GTP-polymerized Taxol-stabilized microtubules (bovine tubulin) (bovine) (UniProt Q6B856). The experiment is described as follows: co-sedimentation. The source holds these as a separate data set.
The target is the same in experiment [6]. The experiment is described as follows: co-sedimentation. The source holds these as a separate data set.
The target in experiment [7] is GTPγS microtubule segment (bovine (lab-purified from bovine brain; Cytoskeleton tubulin used interchangeably)) (UniProt Q6B856). The experiment is described as follows: TIRF microscopy.
The target in experiment [8] is GMPCPP-stabilized microtubules (GMPCPP-bound microtubule seeds) (bovine (lab-purified from bovine brain; Cytoskeleton tubulin used interchangeably)) (UniProt Q6B856). The experiment is described as follows: TIRF microscopy.
Experiment [9] shares this target. The experiment is described as follows: TIRF microscopy. The source holds these as a separate data set.
For experiment [10], the target named is GMPCPP+GDP microtubule cap (bovine (lab-purified from bovine brain; Cytoskeleton tubulin used interchangeably)) (UniProt Q6B856). The experiment is described as follows: TIRF microscopy.
For experiment [11], the target named is GDP-tubulin microtubule segment (GTP►GDP growth) (bovine (lab-purified from bovine brain; Cytoskeleton tubulin used interchangeably)) (UniProt Q6B856). The experiment is described as follows: TIRF microscopy.
Experiment [12] deals with GMPCPP-stabilized microtubules (GMPCPP-bound microtubule seeds) (bovine (lab-purified from bovine brain; Cytoskeleton tubulin used interchangeably)) (UniProt Q6B856). The experiment is described as follows: TIRF microscopy. This is another data set of the same source.
Experiment [13] has as its target GMPCPP+GDP microtubule cap (bovine (lab-purified from bovine brain; Cytoskeleton tubulin used interchangeably)) (UniProt Q6B856). The experiment is described as follows: TIRF microscopy. The source holds these as a separate data set.
In experiment [14] the target is GDP-tubulin microtubule segment (GTP►GDP growth) (bovine (lab-purified from bovine brain; Cytoskeleton tubulin used interchangeably)) (UniProt Q6B856). The experiment is described as follows: TIRF microscopy. The source holds these as a separate data set.
The target in experiment [15] is GMPCPP-stabilized microtubules (GMPCPP-bound microtubule seeds) (bovine (lab-purified from bovine brain; Cytoskeleton tubulin used interchangeably)) (UniProt Q6B856). The experiment is described as follows: TIRF microscopy. This is another data set of the same source.
Experiment [16] deals with GTP-polymerized Taxol-stabilized microtubules (bovine tubulin) (bovine) (UniProt Q6B856). The experiment is described as follows: co-sedimentation. This is another data set of the same source.
The target of experiment [17] is GMPCPP+GDP microtubule cap (bovine (lab-purified from bovine brain; Cytoskeleton tubulin used interchangeably)) (UniProt Q6B856). The experiment is described as follows: TIRF microscopy. The source holds these as a separate data set.
Experiment [18] addresses GDP-tubulin microtubule segment (GTP►GDP growth) (bovine (lab-purified from bovine brain; Cytoskeleton tubulin used interchangeably)) (UniProt Q6B856). The experiment is described as follows: TIRF microscopy. This is another data set of the same source.
Experiment [19] concerns the target GMPCPP-stabilized microtubules (GMPCPP-bound microtubule seeds) (bovine (lab-purified from bovine brain; Cytoskeleton tubulin used interchangeably)) (UniProt Q6B856). The experiment is described as follows: TIRF microscopy. The source holds these as a separate data set.
The target of experiment [20] is GMPCPP+GDP microtubule cap (bovine (lab-purified from bovine brain; Cytoskeleton tubulin used interchangeably)) (UniProt Q6B856). The experiment is described as follows: TIRF microscopy. The source holds these as a separate data set.
Experiment [21] deals with GDP-tubulin microtubule segment (GTP►GDP growth) (bovine (lab-purified from bovine brain; Cytoskeleton tubulin used interchangeably)) (UniProt Q6B856). The experiment is described as follows: TIRF microscopy. The source holds these as a separate data set.
Experiment [22] deals with GMPCPP-stabilized microtubules (GMPCPP-bound microtubule seeds) (bovine (lab-purified from bovine brain; Cytoskeleton tubulin used interchangeably)) (UniProt Q6B856). The experiment is described as follows: TIRF microscopy. This is another data set of the same source.

Regarding “Kif7_(DM-L8)^KHC-GFP (Kif7 1–543 with loop L8 replaced by kinesin-1 L8) (from UniProt Q2M1P5 1-543) (domain or fragment)”, the Kd (as a rule, the free concentration of one partner at which half of the binding sites on the other are occupied at equilibrium, for simple one-to-one binding) in [1] was 850 nM.

With “soluble tubulin (α-β-tubulin heterodimer) (from UniProt Q6B856 1-445) (complex)”, the results for the Kd in [2], in experiment [3] and in experiment [4] were 1640 nM, 4980 nM and 8100 nM, respectively.

B1: Kif7DM-GFP (dimeric Kif7, aa. 1–543, C-terminal GFP) (domain or fragment)
chain: MGLEAQRLPGAEEAPVRVALRVRPLLPKELLHGHQSCLQVEPGLGRVTLGRDRHFGFHVVLAEDAGQEAVYQACVQPLLEAFFEGFNATVFAYGQTGSGKTYTMGEASVASLLEDEQGIVPRAMAEAFKLIDENDLLDCLVHVSYLEVYKEEFRDLLEVGTASRDIQLREDERGNVVLCGVKEVDVEGLDEVLSLLEMGNAARHTGATHLNHLSSRSHTVFTVTLEQRGRAPSRLPRPAPGQLLVSKFHFVDLAGSERVLKTGSTGERLKESIQINSSLLALGNVISALGDPQRRGSHIPYRDSKITRILKDSLGGNAKTVMIACVSPSSSDFDETLNTLNYASRAQNIRNRATVNWRPEAERPPEETASGARGPPRHRSETRIIHRGRRAPGPATASAAAAMRLGAECARYRACTDAAYSLLRELQAEPGLPGAAARKVRDWLCAVEGERSALSSASGPDSGIESASVEDQAAQGAGGRKEDEGAQQLLTLQNQVARLEEENRDFLAALEDAMEQYKLQSDRLREQQEEMVELRLRLELVRP
As to B1, the Kd in experiment [5] turned out to be 780 nM; in experiment [6], 810 nM; in experiment [1], 540 nM; in experiment [16], 430 nM. In addition, the GFP fluorescence intensity per pixel in experiment [7] stood at 511; in experiment [8] it was 218; in experiment [9], 836; in [10], 37.1; in experiment [11], 8.6; in experiment [12], 53. The GFP fluorescence intensity per pixel in experiment [13] came to 338; in experiment [14], 208; in [15], 592; in experiment [17], 401; in experiment [18], 216; in experiment [19], 693. The results for the GFP fluorescence intensity per pixel in experiment [20], in [21] and in experiment [22] were 80.8, 14.1 and 202, respectively. The same molecule came in with a GFP fluorescence intensity at curvature |κ0|, 10 nM Kif7DM-GFP in experiment [8] of 164. The GFP fluorescence intensity at curvature |κ0|, 50 nM Kif7DM-GFP in experiment [8] is 278. The same molecule had a GFP fluorescence intensity at curvature |κ1|, 10 nM Kif7DM-GFP in experiment [8] of 168. Also, in experiment [8], the GFP fluorescence intensity at curvature |κ1|, 50 nM Kif7DM-GFP was found to be 285. Also, the GFP fluorescence intensity at curvature |κ2|, 10 nM Kif7DM-GFP in experiment [8] was determined as 168. In [8], this molecule displayed a GFP fluorescence intensity at curvature |κ2|, 50 nM Kif7DM-GFP of 280. The GFP fluorescence intensity at curvature |κ3|, 10 nM Kif7DM-GFP in experiment [8] was found to be 164. Moreover, in experiment [8], the GFP fluorescence intensity at curvature |κ3|, 50 nM Kif7DM-GFP came to 283.
